# Data reported in patent publication US20250002577A1 (ONCORESPONSE, published 2025).
# Experiments:
# human LILRB1 on cells [1] = molecular target: T1, human LILRB1 on cells (human, UniProt Q8NHL6 24-650); assay: flow cytometry, HEK293-6E transfectants
# T1 construct: whole, on cells; also called hLILRB1; LILRB1-expressing 721.221 cells
# Experimental: (§1) To determine that the parent chimera anti LILRB2/1 antibody specifically binds to LILRB2 and LILRB1 and not to other LILRB and LILRA family members, a cross-reactivity assay was performed. Cross-reactivity was assessed by antibody binding to transiently transfected HEK293-6E cells by flow cytometry. Binding was evaluated to HEK293-6E cells transiently transfected with human LILRB-1, -2, -3, -4, and 5 plasmids (Origene, Nos. RC219949, RC217935, RC211228, RC220932, RC206516) or to cells transiently transfected with human LILRA-1, -2, -4, -5, and -6 plasmids (Origene, Nos. RC210808, RC205626, RC220452, RC212310 RC212965). […] At a concentration of 1 μg/mL, no binding of B21A1 or the humanized variants to LILRB-3, -4, or -5 was observed (Table 7). Additionally, no binding to LILRA-1, -2, -4, -5, or -6 was observed, confirming the specificity of B21A1 and its humanized variants to LILRB1 and LILRB2 (Table 8).
# human LILRB2 on cells [2] = molecular target: T2, human LILRB2 on cells (human, UniProt Q8N423 22-597); assay: flow cytometry, HEK293-6E transfectants
# T2 construct: whole, on cells; also called hLILRB2; LILRB2-HEK293T
# T2 sequence (Q8N423 22-597): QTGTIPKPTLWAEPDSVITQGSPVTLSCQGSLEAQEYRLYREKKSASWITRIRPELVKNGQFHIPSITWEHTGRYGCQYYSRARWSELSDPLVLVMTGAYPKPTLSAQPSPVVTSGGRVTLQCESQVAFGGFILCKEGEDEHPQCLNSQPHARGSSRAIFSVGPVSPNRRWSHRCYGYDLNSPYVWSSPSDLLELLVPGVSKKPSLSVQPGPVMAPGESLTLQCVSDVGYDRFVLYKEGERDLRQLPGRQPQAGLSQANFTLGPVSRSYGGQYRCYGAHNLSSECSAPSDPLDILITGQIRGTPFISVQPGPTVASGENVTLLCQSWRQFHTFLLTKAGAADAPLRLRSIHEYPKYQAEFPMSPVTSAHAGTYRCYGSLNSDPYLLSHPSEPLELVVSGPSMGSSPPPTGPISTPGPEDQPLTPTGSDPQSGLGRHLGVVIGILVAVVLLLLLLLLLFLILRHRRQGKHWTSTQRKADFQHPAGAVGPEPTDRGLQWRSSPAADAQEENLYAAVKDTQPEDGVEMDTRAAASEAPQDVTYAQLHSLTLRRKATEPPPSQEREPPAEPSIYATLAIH
# Experimental: as §1
# [3] = molecular target: T3, human LILRB3 on HEK293-6E cells (human, UniProt O75022 24-631); assay: flow cytometry, HEK293-6E transfectants
# T3 construct: whole, on cells; also called hLILRB3
# T3 sequence (O75022 24-631): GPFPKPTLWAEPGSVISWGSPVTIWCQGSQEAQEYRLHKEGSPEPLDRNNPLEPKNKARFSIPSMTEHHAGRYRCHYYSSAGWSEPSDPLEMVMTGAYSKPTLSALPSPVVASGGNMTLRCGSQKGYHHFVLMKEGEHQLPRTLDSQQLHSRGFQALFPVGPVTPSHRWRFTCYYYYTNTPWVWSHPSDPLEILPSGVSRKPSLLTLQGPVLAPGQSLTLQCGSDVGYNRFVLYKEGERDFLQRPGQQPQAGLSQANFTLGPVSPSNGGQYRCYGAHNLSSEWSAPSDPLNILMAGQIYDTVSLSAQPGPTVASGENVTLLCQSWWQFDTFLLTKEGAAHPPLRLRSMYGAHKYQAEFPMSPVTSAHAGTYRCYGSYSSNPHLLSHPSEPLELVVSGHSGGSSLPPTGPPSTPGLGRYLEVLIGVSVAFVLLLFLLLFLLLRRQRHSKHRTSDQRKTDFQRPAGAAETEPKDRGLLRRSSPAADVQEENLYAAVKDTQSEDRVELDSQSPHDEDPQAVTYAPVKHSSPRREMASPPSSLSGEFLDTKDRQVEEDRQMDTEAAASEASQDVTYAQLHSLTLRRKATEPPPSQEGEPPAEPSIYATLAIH
# Experimental: as §1
# [4] = molecular target: T4, human LILRB4 on HEK293-6E cells (human, UniProt Q8NHJ6 22-448); assay: flow cytometry, HEK293-6E transfectants
# T4 construct: whole, on cells; also called hLILRB4
# Experimental: as §1
# [5] = molecular target: T5, human LILRB5 on HEK293-6E cells (human, UniProt O75023 24-590); assay: flow cytometry, HEK293-6E transfectants
# T5 construct: whole, on cells; also called hLILRB5
# T5 sequence (O75023 24-590): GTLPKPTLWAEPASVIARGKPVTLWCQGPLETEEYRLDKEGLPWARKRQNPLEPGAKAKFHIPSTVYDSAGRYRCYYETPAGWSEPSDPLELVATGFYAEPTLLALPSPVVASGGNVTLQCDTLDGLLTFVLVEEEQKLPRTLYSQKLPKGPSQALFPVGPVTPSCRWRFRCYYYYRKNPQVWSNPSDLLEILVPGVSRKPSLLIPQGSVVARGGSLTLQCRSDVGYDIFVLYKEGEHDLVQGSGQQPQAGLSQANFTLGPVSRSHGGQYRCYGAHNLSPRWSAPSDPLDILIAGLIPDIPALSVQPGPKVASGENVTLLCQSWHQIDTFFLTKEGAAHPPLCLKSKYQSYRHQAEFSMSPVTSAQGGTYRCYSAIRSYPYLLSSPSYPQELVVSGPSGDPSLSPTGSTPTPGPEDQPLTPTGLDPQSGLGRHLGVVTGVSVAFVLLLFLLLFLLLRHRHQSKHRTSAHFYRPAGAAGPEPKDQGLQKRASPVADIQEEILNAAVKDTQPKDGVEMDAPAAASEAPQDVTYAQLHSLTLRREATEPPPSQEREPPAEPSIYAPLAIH
# Experimental: as §1
# [6] = molecular target: T6, human LILRA1 on HEK293-6E cells (human, UniProt O75019 17-489); assay: flow cytometry, HEK293-6E transfectants
# T6 construct: whole, on cells; also called hLILRA1
# T6 sequence (O75019 17-489): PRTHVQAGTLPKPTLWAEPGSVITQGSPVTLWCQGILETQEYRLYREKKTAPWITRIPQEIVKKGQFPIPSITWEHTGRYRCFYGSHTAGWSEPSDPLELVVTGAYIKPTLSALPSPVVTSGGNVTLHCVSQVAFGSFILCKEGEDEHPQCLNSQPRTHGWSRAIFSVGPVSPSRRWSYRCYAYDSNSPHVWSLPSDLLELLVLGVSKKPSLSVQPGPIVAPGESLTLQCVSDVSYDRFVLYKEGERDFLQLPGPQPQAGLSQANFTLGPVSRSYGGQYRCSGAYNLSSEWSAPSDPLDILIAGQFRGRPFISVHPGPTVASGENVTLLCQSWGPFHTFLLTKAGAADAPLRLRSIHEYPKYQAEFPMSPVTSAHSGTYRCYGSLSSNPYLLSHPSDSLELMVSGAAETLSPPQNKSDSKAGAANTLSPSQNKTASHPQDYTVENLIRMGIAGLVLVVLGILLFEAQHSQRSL
# Experimental: as §1
# [7] = molecular target: T7, human LILRA2 on HEK293-6E cells (human, UniProt Q8N149 24-483); assay: flow cytometry, HEK293-6E transfectants
# T7 construct: whole, on cells; also called hLILRA2
# Experimental: as §1
# [8] = molecular target: T8, human LILRA4 on HEK293-6E cells (human, UniProt P59901 24-499); assay: flow cytometry, HEK293-6E transfectants
# T8 construct: whole, on cells; also called hLILRA4
# T8 sequence (P59901 24-499): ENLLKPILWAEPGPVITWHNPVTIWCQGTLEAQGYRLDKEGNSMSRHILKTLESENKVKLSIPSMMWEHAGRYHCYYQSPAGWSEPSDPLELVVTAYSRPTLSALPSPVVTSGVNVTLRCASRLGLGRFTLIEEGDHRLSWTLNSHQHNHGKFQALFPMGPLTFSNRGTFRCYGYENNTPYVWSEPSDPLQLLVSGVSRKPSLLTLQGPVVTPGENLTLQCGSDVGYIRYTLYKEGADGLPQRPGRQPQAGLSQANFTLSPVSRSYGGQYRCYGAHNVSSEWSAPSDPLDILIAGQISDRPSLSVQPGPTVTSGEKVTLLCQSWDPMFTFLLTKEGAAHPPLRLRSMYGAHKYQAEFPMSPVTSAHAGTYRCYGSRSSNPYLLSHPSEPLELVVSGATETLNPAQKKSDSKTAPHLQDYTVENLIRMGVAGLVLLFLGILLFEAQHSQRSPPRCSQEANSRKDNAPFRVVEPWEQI
# Experimental: as §1
# [9] = molecular target: T9, human LILRA5 on HEK293-6E cells (human, UniProt A6NI73 42-299); assay: flow cytometry, HEK293-6E transfectants
# T9 construct: whole, on cells; also called hLILRA5
# T9 sequence (A6NI73 42-299): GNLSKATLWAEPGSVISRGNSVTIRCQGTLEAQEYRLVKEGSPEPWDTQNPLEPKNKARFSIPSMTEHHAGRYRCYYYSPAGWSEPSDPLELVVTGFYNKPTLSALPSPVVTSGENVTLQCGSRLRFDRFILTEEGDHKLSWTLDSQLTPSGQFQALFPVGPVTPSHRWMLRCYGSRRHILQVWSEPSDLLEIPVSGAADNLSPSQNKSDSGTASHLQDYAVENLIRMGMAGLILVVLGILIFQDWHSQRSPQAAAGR
# Experimental: as §1
# [10] = molecular target: T10, human LILRA6 on HEK293-6E cells (human, UniProt Q6PI73 24-481); assay: flow cytometry, HEK293-6E transfectants
# T10 construct: whole, on cells; also called hLILRA6
# T10 sequence (Q6PI73 24-481): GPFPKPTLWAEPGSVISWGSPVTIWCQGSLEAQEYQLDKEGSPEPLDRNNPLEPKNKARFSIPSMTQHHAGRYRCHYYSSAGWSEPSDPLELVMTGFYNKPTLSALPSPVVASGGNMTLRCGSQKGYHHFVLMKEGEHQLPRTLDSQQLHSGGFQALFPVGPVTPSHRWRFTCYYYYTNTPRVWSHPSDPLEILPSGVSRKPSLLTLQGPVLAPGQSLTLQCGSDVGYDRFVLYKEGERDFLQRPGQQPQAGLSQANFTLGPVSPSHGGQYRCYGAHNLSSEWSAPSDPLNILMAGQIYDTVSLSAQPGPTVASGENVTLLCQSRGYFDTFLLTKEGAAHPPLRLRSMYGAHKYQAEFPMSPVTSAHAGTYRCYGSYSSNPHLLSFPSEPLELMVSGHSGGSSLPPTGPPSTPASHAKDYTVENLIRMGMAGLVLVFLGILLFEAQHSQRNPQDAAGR
# Experimental: as §1
# [11] = molecular target: T11, recombinant human LILRB1-His (human, UniProt Q8NHL6 24-458); assay: MSD ELISA, coated antigen, purified IgG1
# T11 construct: Bought protein; also called LILRB1 protein
# T11 sequence (Q8NHL6 24-458 limits assumed): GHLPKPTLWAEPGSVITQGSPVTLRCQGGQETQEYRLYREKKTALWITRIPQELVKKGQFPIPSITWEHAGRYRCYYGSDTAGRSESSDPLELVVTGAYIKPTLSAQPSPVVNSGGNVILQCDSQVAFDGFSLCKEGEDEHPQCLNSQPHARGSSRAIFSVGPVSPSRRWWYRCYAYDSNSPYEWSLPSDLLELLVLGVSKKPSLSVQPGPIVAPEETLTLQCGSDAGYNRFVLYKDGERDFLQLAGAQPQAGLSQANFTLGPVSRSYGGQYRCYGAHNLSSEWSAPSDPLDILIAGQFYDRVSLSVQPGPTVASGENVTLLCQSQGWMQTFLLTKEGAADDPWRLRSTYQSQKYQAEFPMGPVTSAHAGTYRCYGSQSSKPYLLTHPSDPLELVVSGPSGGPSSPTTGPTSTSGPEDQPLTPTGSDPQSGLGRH
# Experimental: (§2) Recombinant human and cynomolgus LILRB1 proteins (R&D Systems, No. 8989-T2-050; ACROBiosystems, No. CDJ-C52H3) and recombinant human and cynomolgus LILRB2 proteins (ACROBiosystems, No. LI2-H5220; No. L12-C52H3) were diluted in PBS to 4 μg/mL and added to a multi-array 384-well high-binding plates (MSD, No. L21XA4) at 10 μL/well and incubated at 4° C. overnight. The plates were washed several times with Wash Buffer (0.05% Tween® 20 in PBS), using a microplate washer and then blocked with 70 μL/well of 5% BSA in PBS for 1 hour (h) at room temperature (RT) with shaking at 700 rpm. After blocking, 20 μL/well of anti-LILRB2/LILRB1 antibodies or isotype control were added to the plates, and the plates were sealed and incubated for 2 h at RT with shaking at 700 rpm. After primary antibody binding, plates were washed five times with 70 μL/well of Wash Buffer (0.05% Tween® 20 in PBS) using a microplate washer. Secondary detection antibody (SULFO-TAG™-labeled goat anti-human IgG antibody (MSD, No. R32AJ-1)) was diluted to 4 μg/mL in assay diluent (1% BSA in PBS) and 10 μL/well was added to plates and incubated at RT protected from light for 1 h, with shaking at 700 rpm. Following incubation, plates were washed five times with Wash Buffer, using a microplate washer. After removal of the final wash, 35 μL/well of MSD Gold Read Buffer B (MSD, No. R60AM-4) was added to all wells using a Multidrop combo washer/dispenser, and plates were read using MESO Sector 600MM instrument (MSD) within 5 minutes (min) after addition of Read Buffer. Signals as counts per minute (cpm) were recorded. EC₅₀ values were calculated using GraphPad Prism based on log concentration of the primary antibodies versus cpm values.
# [12] = molecular target: T12, recombinant human LILRB2-His (human, UniProt Q8N423 22-461, limits assumed); assay: MSD ELISA, coated antigen, purified IgG1
# T12 construct: Bought protein; also called LILRB2 protein
# T12 sequence (Q8N423 22-461 limits assumed): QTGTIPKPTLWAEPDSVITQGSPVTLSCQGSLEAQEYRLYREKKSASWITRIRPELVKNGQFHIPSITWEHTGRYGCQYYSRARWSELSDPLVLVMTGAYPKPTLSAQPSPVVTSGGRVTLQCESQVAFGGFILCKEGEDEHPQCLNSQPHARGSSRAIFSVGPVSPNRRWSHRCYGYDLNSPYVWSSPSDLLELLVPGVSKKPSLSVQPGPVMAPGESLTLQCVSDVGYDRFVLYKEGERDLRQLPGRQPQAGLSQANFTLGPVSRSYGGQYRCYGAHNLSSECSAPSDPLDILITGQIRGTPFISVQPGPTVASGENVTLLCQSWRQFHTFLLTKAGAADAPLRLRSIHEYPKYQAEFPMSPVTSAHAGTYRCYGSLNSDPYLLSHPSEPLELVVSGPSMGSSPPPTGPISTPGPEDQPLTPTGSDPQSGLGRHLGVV
# Experimental: as §2
# [13] = molecular target: T13, recombinant cynomolgus LILRB1 (cynomolgus); assay: MSD ELISA, coated antigen, purified IgG1
# T13 construct: Bought protein
# Experimental: as §2
# human LILRB1 on cells [14] = molecular target: T1, human LILRB1 on cells; assay: flow cytometry, 721.221 cells, AF647-labelled antibody
# Experimental: (§3) While LILRB2 expression is mostly restricted to myeloid cells, LILRB1 has a broader expression on immune cell subsets, including B cells, T cells and NK cells.
# (§4) Frozen cells were removed from storage in vapor phase liquid nitrogen and thawed by gentle swirling in a water bath at 37° C., then resuspended in DMEM media with 10% FBS. Cells were placed in a 15 mL conical tube and centrifuged at 300×g for 5 min, then supernatant was removed. Cells were resuspended in DMEM+10% FBS at a cell density of 2×10⁵ cells/mL in a T75 flask for culturing, and incubated at 37° C., 5% CO₂ for 3 days before passaging. Cells were passaged when the cell density reached 1×10⁶ cell/mL. On the day of the assay, cells were centrifuged, then supernatant was removed. Cells were resuspended in Blocking Buffer B (FACS Buffer containing 10% FBS and 0.5 mg/mL human IgG1 (Athens Research, No. 16-16-090707-1M)+0.05% NaN₃, 5% (w/v)) in a 15 mL conical tube, then incubated at 4° C. for 30 min. […] Cells were incubated with antibodies at 4° C. for 1 h. Cells were washed twice in FACS Buffer (PBS containing 2 mM EDTA+1% FBS+0.05% NaN₃) and then stained with for 10 min with Zombie Violet™ fixable viability dye (BioLegend, No. 423114) at RT, washed with FACS Buffer and resuspend in 75 μL of FACS Buffer for acquisition on a BD FACSymphony™ or BD FACSCanto™ II flow cytometer (BD Biosciences), as described in Example 6.
# human LILRB2 on cells [15] = molecular target: T2, human LILRB2 on cells; assay: flow cytometry, LILRB2-HEK293T cells, AF647-labelled antibody
# Experimental: as §3, §4
# T1 sequence (Q8NHL6 24-650): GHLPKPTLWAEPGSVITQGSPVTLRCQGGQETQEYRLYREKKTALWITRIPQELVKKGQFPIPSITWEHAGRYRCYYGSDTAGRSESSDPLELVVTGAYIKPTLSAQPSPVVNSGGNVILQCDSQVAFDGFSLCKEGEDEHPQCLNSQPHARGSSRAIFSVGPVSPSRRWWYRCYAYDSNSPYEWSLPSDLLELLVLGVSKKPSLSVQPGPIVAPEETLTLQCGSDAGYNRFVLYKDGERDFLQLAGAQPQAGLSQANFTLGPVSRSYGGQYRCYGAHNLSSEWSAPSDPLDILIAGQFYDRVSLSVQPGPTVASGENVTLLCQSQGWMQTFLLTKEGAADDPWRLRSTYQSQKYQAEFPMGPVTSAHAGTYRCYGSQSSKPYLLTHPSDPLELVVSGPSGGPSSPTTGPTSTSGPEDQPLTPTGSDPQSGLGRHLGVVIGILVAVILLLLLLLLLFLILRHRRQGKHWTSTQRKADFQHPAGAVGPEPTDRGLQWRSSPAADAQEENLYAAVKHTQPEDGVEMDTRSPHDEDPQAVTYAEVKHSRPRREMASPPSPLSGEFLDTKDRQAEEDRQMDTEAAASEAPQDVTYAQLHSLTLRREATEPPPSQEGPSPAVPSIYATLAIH
Binder,MFI (human LILRB1 on cells [1]) [MFI],MFI (human LILRB2 on cells [2]) [MFI],MFI [3] [MFI],binding result [3],MFI [4] [MFI],binding result [4],MFI [5] [MFI],binding result [5],MFI [6] [MFI],binding result [6],MFI [7] [MFI],binding result [7],MFI [8] [MFI],binding result [8],MFI [9] [MFI],binding result [9],MFI [10] [MFI],binding result [10],EC50 [11] [µg/mL],EC50 [12] [µg/mL],also measured
"B21H1-33 (antibody, human IgG1, kappa, humanized IgG1/kappa, VH3+VL3) heavy: not shown light: DIVMTQSPSSVSASVGDRVTITCQASGNIYSFLAWYQQKPGKAPKLLIYTASNLETGVPSRFSGSGSGTDFTLTISSLQPEDFATYYCLGGLYSSDVSYAFGGGTKVVIKRTVAAPSVFIFPPSDEQLKSGTASVVCLLNNFYPREAKVQWKVDNALQSGNSQESVTEQDSKDSTYSLSSTLTLSKADYEKHKVYACEVTHQGLSSPVTKSFNRGEC",860,6290,89.2,no binding (tested: 1 µg/mL),27.4,no binding (tested: 1 µg/mL),85.8,no binding (tested: 1 µg/mL),204,no binding (tested: 1 µg/mL),25.9,no binding (tested: 1 µg/mL),112,no binding (tested: 1 µg/mL),73.1,no binding (tested: 1 µg/mL),140,no binding (tested: 1 µg/mL),0.00616,0.0225,EC50 [13]: 5.85 µg/mL; EC50 (human LILRB2 on cells [15]): 0.00144 µg/mL
"B21H1-12 (antibody, human IgG1, kappa, humanized IgG1/kappa, VH1+VL2) heavy: not shown light: DIQMTQSPSSLSASVGDRVTITCQASGNIYSFLAWYQQKPGKVPKLLIYTASNLETGVPSRFSGSGSGTDYTLTISSLQSEDAATYYCLGGLYSSDVSYAFGGGTKVVIKRTVAAPSVFIFPPSDEQLKSGTASVVCLLNNFYPREAKVQWKVDNALQSGNSQESVTEQDSKDSTYSLSSTLTLSKADYEKHKVYACEVTHQGLSSPVTKSFNRGEC",963,6210,82.2,no binding (tested: 1 µg/mL),27.3,no binding (tested: 1 µg/mL),87.8,no binding (tested: 1 µg/mL),276,no binding (tested: 1 µg/mL),26.6,no binding (tested: 1 µg/mL),112,no binding (tested: 1 µg/mL),72.8,no binding (tested: 1 µg/mL),151,no binding (tested: 1 µg/mL),0.00614,0.0174,EC50 (human LILRB1 on cells [14]): 0.0417 µg/mL; EC50 (human LILRB2 on cells [15]): 0.00102 µg/mL

# Second part, led by results:
MFI (human LILRB1 on cells [1]) [MFI],MFI (human LILRB2 on cells [2]) [MFI],MFI [3] [MFI],binding result [3],MFI [4] [MFI],binding result [4],MFI [5] [MFI],binding result [5],MFI [6] [MFI],binding result [6],MFI [7] [MFI],binding result [7],MFI [8] [MFI],binding result [8],MFI [9] [MFI],binding result [9],MFI [10] [MFI],binding result [10],EC50 [11] [µg/mL],EC50 [12] [µg/mL],Binder,also measured
940,5380,107,no binding (tested: 1 µg/mL),35.2,no binding (tested: 1 µg/mL),101,no binding (tested: 1 µg/mL),264,no binding (tested: 1 µg/mL),30.2,no binding (tested: 1 µg/mL),143,no binding (tested: 1 µg/mL),78.5,no binding (tested: 1 µg/mL),150,no binding (tested: 1 µg/mL),0.0105,0.038,"B21A1 (antibody, human IgG1, kappa, Rabbit/human chimera, human IgG1/kappa; AF647-conjugated in the flow cytometry titrations; also called B21A1 chimera IgG1; parent B21A1) heavy: not shown light: DIVMTQTPASVEAAVGGTVTINCQASGNIYSFLAWYQQKPGQPPKLLIYTASNLETGVPSRFSGSGSGTEYTLTISGVQCDDAATYYCLGGLYSSDVSYAFGGGTEVVVKRTVAAPSVFIFPPSDEQLKSGTASVVCLLNNFYPREAKVQWKVDNALQSGNSQESVTEQDSKDSTYSLSSTLTLSKADYEKHKVYACEVTHQGLSSPVTKSFNRGEC",EC50 [13]: 0.306 µg/mL; EC50 (human LILRB1 on cells [14]): 0.0448 µg/mL; EC50 (human LILRB2 on cells [15]): 0.0008 µg/mL
997,6680,81,no binding (tested: 1 µg/mL),27.2,no binding (tested: 1 µg/mL),83.6,no binding (tested: 1 µg/mL),264,no binding (tested: 1 µg/mL),26.2,no binding (tested: 1 µg/mL),108,no binding (tested: 1 µg/mL),71,no binding (tested: 1 µg/mL),135,no binding (tested: 1 µg/mL),0.0134,0.0461,"B21H1-45 (antibody, human IgG1, kappa, humanized IgG1/kappa, VH4+VL5) heavy: not shown light: DIQMTQTPSTVEASVGGTVTITCQASGNIYSFLAWYQQKPGQPPKLLIYTASNLETGVPSRFSGSGSGTEYTLTISGLQSDDAATYYCLGGLYSSDVSYAFGGGTEVVVKRTVAAPSVFIFPPSDEQLKSGTASVVCLLNNFYPREAKVQWKVDNALQSGNSQESVTEQDSKDSTYSLSSTLTLSKADYEKHKVYACEVTHQGLSSPVTKSFNRGEC",EC50 [13]: 0.284 µg/mL; EC50 (human LILRB1 on cells [14]): 0.0616 µg/mL; EC50 (human LILRB2 on cells [15]): 0.00086 µg/mL
